# US20260345742 (published 2026)
# Ends that are not written are not given here.
# Experiments:
# [1] = molecular target: T1, human ACE2 (human, UniProt Q9BYF1); test: SPR, 37C
# [2] = molecular target: T1, human ACE2; test: SPR, 37C; remark: listed apart in the source
# [3] = molecular target: T1, human ACE2; test: SPR
# [4] = molecular target: T1, human ACE2; test: SPR; given as Ka
# T1 sequence (Q9BYF1 18-740): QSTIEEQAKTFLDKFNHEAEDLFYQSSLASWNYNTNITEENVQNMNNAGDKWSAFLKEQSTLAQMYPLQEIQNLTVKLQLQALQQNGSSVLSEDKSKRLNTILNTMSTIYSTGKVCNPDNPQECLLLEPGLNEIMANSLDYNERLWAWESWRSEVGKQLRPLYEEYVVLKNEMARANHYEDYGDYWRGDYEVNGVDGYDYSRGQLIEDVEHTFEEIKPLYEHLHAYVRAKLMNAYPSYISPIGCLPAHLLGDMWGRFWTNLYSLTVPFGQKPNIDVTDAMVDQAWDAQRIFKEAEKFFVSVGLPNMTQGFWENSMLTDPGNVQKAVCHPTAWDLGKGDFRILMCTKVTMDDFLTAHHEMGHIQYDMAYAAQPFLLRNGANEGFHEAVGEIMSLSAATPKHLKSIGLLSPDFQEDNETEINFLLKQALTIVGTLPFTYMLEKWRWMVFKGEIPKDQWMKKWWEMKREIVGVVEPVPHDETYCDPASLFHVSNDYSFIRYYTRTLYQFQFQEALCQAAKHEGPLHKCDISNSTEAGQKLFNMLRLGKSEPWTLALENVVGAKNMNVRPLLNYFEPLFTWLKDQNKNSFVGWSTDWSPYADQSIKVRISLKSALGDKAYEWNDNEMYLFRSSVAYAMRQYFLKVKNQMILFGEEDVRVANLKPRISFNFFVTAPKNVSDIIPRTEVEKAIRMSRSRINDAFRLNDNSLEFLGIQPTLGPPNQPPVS
binder,measurement,setting,value
FPIPLPYYWLYRALIKRIQALIPKGGRLLPQLVYRLVLRYS (also: biotinylated (site not given here)) [B-YL (biotinylated)],Kd,[1],4370 nM
same,Kd,[2],4370 nM
FPIPLPYCWLCRALIKRIQAMIPKGGRMLPQLVCRLVLRCS [Super Mini-B (SMB)],Kd,[3],9.87 nM
same,Kd,[4],9.9 nM
